The record followed here is US20160091489.

For orientation: Kd means the concentration at which binding is half-saturated. Higher therefore signals lower affinity.

Read-outs that look alike come from different tables or passages of the source.

The test system of data set [1] is Ramos cell surface (protein target not named in document) (Homo sapiens). The conditions noted are these: 3' biotin, Ramos cell capture efficiency in microfluidic device.
Data set [2] deals with CEM cell surface receptor bound by sgc8 (protein not named in document) (Homo sapiens). The experiment in a line: flow. The conditions noted are these: whole CEM cells.

“AACACCGTGGAGGATAGTTCGGTGGCTGTTCAGGGTCTCCTCCCGGTG [AuNP-TD05]” gave an activity in data set [1] (5' thiol-(PEG)24 on gold nanoparticle) of 90 % capture. For “ATCTAACTGCTGCGCCGCCGGGAAAATACTGTACGGTTAGA [AuNP-sgc8]”, the Kd in data set [2] (5' thiol-(PEG)24 on 13.6 nm gold nanoparticle, about 95 aptamers per particle, 3' biotin or FITC, multivalent gold nanoparticle conjugate) was 0.1 nM. In turn, “ATCTAACTGCTGCGCCGCCGGGAAAATACTGTACGGTTAGATTTTTTTTTT [sgc8]” gave a Kd in data set [2] (3' T10 linker as printed in Table 1, 3' biotin for capture, FITC instead of biotin for flow) of 3.9 nM. For “AACACCGTGGAGGATAGTTCGGTGGCTGTTCAGGGTCTCCTCCCGGTGTTTTTTTTTT [TD05]”, the activity in data set [1] (3' T10 linker, aptamer alone) is 41 % capture.
